Key:
Assay in all cases: flow cytometry on HEK293T cells transiently expressing Flag-tagged receptor; receptor presence confirmed by anti-Flag detection
[1] = target: T1, human MC3R (melanocortin 3 receptor) (human, UniProt P41968 1-323)
T1 construct: whole, on cells; Flag-tagged in flow cytometry; transiently expressed in HEK293T/HEK293 cells

[2] = target: T2, human MC2R (melanocortin 2 receptor) (human, UniProt Q01718 1-297)
T2 construct: whole, on cells; Flag-tagged, transiently expressed in HEK293T cells

[3] = target: T3, human MC1R (melanocortin 1 receptor) (human, UniProt Q01726 1-317)
T3 construct: whole, on cells; Flag-tagged in flow cytometry; transiently expressed in HEK293T/HEK293 cells; also called hMC1R

[4] = target: T4, human MC5R (melanocortin 5 receptor) (human, UniProt P33032 1-325)
T4 construct: whole, on cells; Flag-tagged in flow cytometry; transiently expressed in HEK293T/HEK293 cells

Measured: binding result

T1 sequence (P41968 whole entry): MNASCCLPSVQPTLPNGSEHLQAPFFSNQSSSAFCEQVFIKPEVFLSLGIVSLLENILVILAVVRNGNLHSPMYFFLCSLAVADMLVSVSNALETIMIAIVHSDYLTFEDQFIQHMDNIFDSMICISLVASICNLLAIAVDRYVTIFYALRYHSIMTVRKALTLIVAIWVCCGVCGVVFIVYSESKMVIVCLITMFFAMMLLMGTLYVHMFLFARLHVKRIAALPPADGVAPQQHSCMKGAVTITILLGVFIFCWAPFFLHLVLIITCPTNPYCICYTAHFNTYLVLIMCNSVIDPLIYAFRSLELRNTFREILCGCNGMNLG
T2 sequence (Q01718 whole entry): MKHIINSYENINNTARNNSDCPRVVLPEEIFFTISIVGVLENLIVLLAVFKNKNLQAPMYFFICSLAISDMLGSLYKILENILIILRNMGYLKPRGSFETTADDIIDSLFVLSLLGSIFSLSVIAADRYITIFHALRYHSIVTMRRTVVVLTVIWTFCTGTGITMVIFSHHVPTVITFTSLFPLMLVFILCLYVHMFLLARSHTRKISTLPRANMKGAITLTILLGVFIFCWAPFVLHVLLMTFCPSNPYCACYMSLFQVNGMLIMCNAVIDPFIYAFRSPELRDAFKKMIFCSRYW
T3 sequence (Q01726 whole entry): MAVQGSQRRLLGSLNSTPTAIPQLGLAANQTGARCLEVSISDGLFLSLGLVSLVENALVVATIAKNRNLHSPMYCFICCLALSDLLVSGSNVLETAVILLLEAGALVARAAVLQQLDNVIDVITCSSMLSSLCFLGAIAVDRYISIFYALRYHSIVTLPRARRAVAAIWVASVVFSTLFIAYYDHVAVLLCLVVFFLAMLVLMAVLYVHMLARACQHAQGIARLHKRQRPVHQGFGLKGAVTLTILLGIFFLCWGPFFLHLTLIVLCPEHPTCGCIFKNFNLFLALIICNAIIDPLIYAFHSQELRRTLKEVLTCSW
T4 sequence (P33032 whole entry): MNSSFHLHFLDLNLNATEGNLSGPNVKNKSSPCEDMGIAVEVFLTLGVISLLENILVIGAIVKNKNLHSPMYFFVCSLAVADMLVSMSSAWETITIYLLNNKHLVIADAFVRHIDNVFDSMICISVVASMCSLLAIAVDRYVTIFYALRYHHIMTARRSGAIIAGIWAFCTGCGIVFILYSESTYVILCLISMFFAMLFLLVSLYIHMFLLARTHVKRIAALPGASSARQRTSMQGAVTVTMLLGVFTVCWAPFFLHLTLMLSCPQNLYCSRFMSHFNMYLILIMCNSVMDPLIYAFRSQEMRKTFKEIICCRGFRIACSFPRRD

B1: pN0162 (VHH)
VHH: QVQLVESGGGLVQPGGSLRLSCAASGSAFSLNVMGWYRQTPGNQRALVAEITKDGSTNYADSAKGRFTISRDNAKNTVHLQMDSLKPEDTAVYYCKARTGRIVRPLDYWGQGTQVTVSS
notes: Agonist nanobody from llama immunisation, purified from E. coli; also called pN162
no binding (tested: 1 µM): [1] | [2] | [3] | [4]
